Measurements: US20190308168A1

How the values were obtained:
Settings in all cases: scale: mg Gammanorm/ml chromatography matrix(gel)
[1] = molecular target: GAMMANORM 165 mg/ml (Octapharma no. 00 86 64), human normal immunoglobulin (human); experiment: column dynamic binding capacity at 10% breakthrough, before NaOH incubation
[2] = molecular target: GAMMANORM 165 mg/ml (Octapharma no. 00 86 64), human normal immunoglobulin (human); experiment: column dynamic binding capacity at 10% breakthrough, after 1 h accumulated in 0.5 M NaOH
[3] = molecular target: GAMMANORM 165 mg/ml (Octapharma no. 00 86 64), human normal immunoglobulin (human); experiment: column dynamic binding capacity at 10% breakthrough, after 3 h accumulated in 0.5 M NaOH
[4] = molecular target: GAMMANORM 165 mg/ml (Octapharma no. 00 86 64), human normal immunoglobulin (human); experiment: column dynamic binding capacity at 10% breakthrough, after 5 h accumulated in 0.5 M NaOH
[5] = molecular target: GAMMANORM 165 mg/ml (Octapharma no. 00 86 64), human normal immunoglobulin (human); experiment: column dynamic binding capacity at 10% breakthrough, after 10 h accumulated in 0.5 M NaOH
[6] = molecular target: GAMMANORM 165 mg/ml (Octapharma no. 00 86 64), human normal immunoglobulin (human); experiment: column dynamic binding capacity at 10% breakthrough, after 15 h accumulated in 0.5 M NaOH
[7] = molecular target: GAMMANORM 165 mg/ml (Octapharma no. 00 86 64), human normal immunoglobulin (human); experiment: column dynamic binding capacity at 10% breakthrough, after 20 h accumulated in 0.5 M NaOH

| Sequence | Capacity (Start Capacity 1) [1] | Capacity (Start Capacity 2) [1] | Capacity after 1 h [2] | Capacity after 3 h [3] | Capacity after 5 h [4] | Capacity after 10 h [5] | Capacity after 15 h [6] | Capacity after 20 h [7] |
| --- | --- | --- | --- | --- | --- | --- | --- | --- |
| MABSELECT ligand (recombinant Protein A consisting of five homologous domains E, D, A, B, C), coupled to agarose particles (from UniProt P38507 37-327) | 29 | 29 | 27 | 23.1 | 20.3 | 15.8 | 12.5 | 10.1 |
| MABSELECT SURE ligand (four domains originating from the domain B analogue Z, stabilized against high pH by protein engineering), coupled to agarose particles (designed binder) | 28.4 | 28.1 | 29.3 | 28.4 | 28.2 | 27.9 | 27 | 25.9 |
